Columns and labels:
[1] = target: His6-TRX-PfPPR1 (Plasmodium falciparum apicoplast pentatricopeptide repeat protein 1, with His6-TRX tag) (Plasmodium falciparum); assay: SEC
[2] = target: PfPPR1 minus the His6-TRX tag (tag cleaved by HRV 3C protease) (Plasmodium falciparum); assay: AUC

Row | stoichiometry N [1] | stoichiometry N [2] | Substance
1 | 2 | – | His6-TRX-PfPPR1 (Plasmodium falciparum apicoplast pentatricopeptide repeat protein 1, with His6-TRX tag) (natural protein)
2 | – | 2 | PfPPR1 minus the His6-TRX tag (tag cleaved by HRV 3C protease) (natural protein)
